From PMC5889556

B1: His-UgtP (enzyme)
chain: MNTNKRVLILTANYGNGHVQVAKTLYEQCVRLGFQHVTVSNLYQESNPIVSEVTQYLYLKSFSIGKQFYRLFYYGVDKIYNKRKFNIYFKMGNKRLGELVDEHQPDIIINTFPMIVVPEYRRRTGRVIPTFNVMTDFCLHKIWVHENVDKYYVATDYVKEKLLEIGTHPSNVKITGIPIRPQFEESMPVGPIYKKYNLSPNKKVLLIMAGAHGVLKNVKELCENLVKDDQVQVVVVCGKNTALKESLSALEAENGDKLKVLGYVERIDELFRITDCMITKPGGITLTEATAIGVPVILYKPVPGQEKENANFFEDRGAAIVVNRHEEILESVTSLLADEDTLHRMKKNIKDLHLANSSEVILEDILKESEMMTAKQKAKVLS

Key:
[1] = target: FtsZ (Bacillus subtilis) (UniProt P17865); conditions: cited from earlier work
[2] = target: ClpXP complex (B. subtilis) (UniProt P50866)

| Molecule | Kd [1] [µM] | in vitro ClpXP proteolysis assay with 5 mM ATP: percent of purified His-UgtP degraded after 45 min, by anti-His immunoblot [2] [%] | in vitro ClpXP proteolysis assay without ATP: percent of purified His-UgtP degraded, by anti-His immunoblot [2] [%] |
| --- | --- | --- | --- |
| UgtP (from UniProt P54166) | 0.038 |  |  |
| B1 |  | 88 | 13 |
